One substance from PMC8649778 can be followed below.

For orientation: stoichiometry N means the number of molecules, sites or subunits per partner or assembly.

In the experiment the target is APRc_(110–231)His, soluble domain of APRc fused to a C-terminal His tag (Rickettsia conorii) (UniProt Q92FY8). The experiment can be described thus: shift of migration in nonreducing SDS-PAGE with Western blot. For orientation: Immunoblotting shows a protein as a band on a membrane.

“APRc_(110–231)His, soluble domain of APRc fused to a C-terminal His tag (from UniProt Q92FY8 110-231) (domain or fragment)”: the stoichiometry N was determined as 2.
